What all share (experiment): SPR
A general note: Surface plasmon resonance follows binding to a sensor surface in real time, without labels.

Test [1] addresses soluble tissue factor (TF 1-219) (UniProt P13726 33-251).
Test [2] addresses T1, recombinant tissue factor containing transmembrane spanning domain (TF 1-248), relipidated.
T1 chain: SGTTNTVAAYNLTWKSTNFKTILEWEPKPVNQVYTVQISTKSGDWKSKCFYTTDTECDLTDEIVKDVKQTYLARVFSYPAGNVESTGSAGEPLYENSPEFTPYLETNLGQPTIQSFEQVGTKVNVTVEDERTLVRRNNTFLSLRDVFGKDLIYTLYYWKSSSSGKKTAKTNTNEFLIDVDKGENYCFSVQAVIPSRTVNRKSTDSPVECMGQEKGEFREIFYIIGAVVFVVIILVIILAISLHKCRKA

Test [3] concerns the target T1, recombinant tissue factor containing ….

Where two headings read alike, the source gives them in different places.

B1: Factor VIIa (enzyme)
chain 1: ANAFLEELRPGSLERECKEEQCSFEEAREIFKDAERTKLFWISYSDGDQCASSPCQNGGSCKDQLQSYICFCLPAFEGRNCETHKDDQLICVNENGGCEQYCSDHTGTKRSCRCHEGYSLLADGVSCTPTVEYPCGKIPILEKRNASKPQGR
chain 2: IVGGKVCPKGECPWQVLLLVNGAQLCGGTLINTIWVVSAAHCFDKIKNWRNLIAVLGEHDLSEHDGDEQSRRVAQVIIPSTYVPGTTNHDIALLRLHQPVVLTDHVVPLCLPERTFSERTLAFVRFSLVSGWGQLLDRGATALELMVLNVPRLMTQDCLQQSRKVGDSPNITEYMFCAGYSDGSKDSCKGDSGGPHATHYRGTWYLTGIVSWGQGCATVGHFGVYTRVSQYIEWLQKLMRSEPRPGVLLRAPFP
Take B1: the Kd (commonly the constant that tells how readily two partners part at equilibrium) in test [1] amounted to 11.6 nM; in test [2], 0.0457 nM; in test [3] it was 0.0474 nM. Moreover, the koff (in general, the first-order rate constant of dissociation) was found to be 0.00592 s⁻¹ in test [1], 0.000234 s⁻¹ in test [2] and 0.000233 s⁻¹ in test [3]. Further, the kon – broadly, the rate constant with which the complex forms – in test [1] was 475000 M⁻¹ s⁻¹; in test [2] it was 2.73e+06 M⁻¹ s⁻¹; in test [3], 2.58e+06 M⁻¹ s⁻¹.

(Values after publication PMC2864353 (Blood coagulation & fibrinolysis : an international journal …, 2010).)
